Experimental data taken from US20230285581A1.
Substitutions are numbered along the chain they refer to. Names may count otherwise.

B1: H1H21227N-N297Q (antibody, human IgG1, V domains shown)
VH: QVQLVQSGAEVKKPGASVKVSCKVSGYTLTELSIHWVRQVPGKGLEWMGGFDPEEGETIFAQEFRDRVTLTEDTSPDTAYMELSSLKSEDAAVYYCTTPRYCNNGICYDYWGQGTLVTVSS
VL: DIQMTQSPSSLSASVGDRVTITCRASQSISNYLNWYQQKPGKAPKLLIYTASSLQSGVPSRFSGSGSGTDFTLTISSLQTEDFATYYCQQSYSNFPITFGQGTRLEIKR
B2: H1H21227N-N297D (antibody, human IgG1, V domains shown)
VH: B1 VH
VL: B1 VL
B3: H1H21227N (antibody, human IgG1, V domains shown)
VH: B1 VH
VL: B1 VL
B4: H1H21231N-N297Q (antibody, human IgG1, V domains shown)
VH: EVQLVESGGGLVQPGGSLRLSCAASGFTFSDHYMDWVRQAPGKGLEWVGRTRNKANSHTTEYTASVTGRFTISRDDSRNSLYLQMNSLKTEDTAVYYCVRAGIIGTLFDYWGQGTLVTVSS
VL: B1 VL with S7F, N31S, Y32F, Y36F, L46F, T50A, T80P, N94S, F95P
B5: H1H21231N (antibody, human IgG1, V domains shown)
VH: B4 VH
VL: B1 VL with S7F, N31S, Y32F, Y36F, L46F, T50A, T80P, N94S, F95P
B6: H1H21234N-N297Q (antibody, human IgG1, V domains shown)
VH: QVQLQESGPGLVKPSETLSLTCTVTGGSISRNYWSWIRQPPGKGLEWIGYIYYSGSIDYNPSLKSRVTISVDTSKNQFSLKLSSMTAADTAVYYCARDRWNWKYGMDVWGQGTTVIVSS
VL: EIVLTQSPGTLSLSPGERATLSCRASQTVRNNYLAWYHQKPGQAPRLLIYGASSRATGIPDRFSGSGSGTDFTLTISRLEPEDFTVYYCHQYGNSPWTFGQGTKMEIKR
B7: H1H21234N (antibody, human IgG1, V domains shown)
VH: B6 VH
VL: B6 VL
B8: H1H27729P-N297Q (antibody, human IgG1, V domains shown)
VH: QVQLVESGGGLVKPGGSLRLSCAASGFIFSDYYMSWIRQAPGKGLEWVSYISSSGTTIYGDSVKGRFTMSRDNAKNSLYLQMNSLRAEDTAVYYCARNYALFDYWGQGTLVTVSS
VL: DIQMTQSPSSLSASVGDRVTITCQASQDISKYLNWYQQKPGKAPKLLIYYTSNLETGVPSRFSGSGSGTDFTFTISSLQPEDIATYYCHQSDYLPFTFGPGTKVDIKR
B9: H1H27734P-N297Q (antibody, human IgG1, V domains shown)
VH: EVQLVESRGGLVQPGGSLRLSCAASGFTFSSYAMSWVRQAPGKGLEWVSAISGSGGSTFYADSVKGRFTISRDNSKNTVYLQMNSLRAEDTAVYYCAKALVLRFLEWLGDYWGQGTLVTVSS
VL: DIQMTQSPSTLSASVGDRVTITCRASQSISSWLAWFQQKPGKAPKLLIYKASSLESGVPSRFSGSGSGTEFTLTISSLQPDDFATYYCQQYKSYWTFGQGTKVEIKR
B10: H1H27739P-N297Q (antibody, human IgG1, V domains shown)
VH: EVQLVESGGGLVQPGGSLRLSCTASGFTFSSYAMSWVRQAPGKGLEWVSAISGTGSSTYFTDSVKGRFAISRDNSKNTLYLQMNSLRAEDTAVYYCAKDGEWLSTVTLFDYWGQGTLVTVSS
VL: EIVMTQSPATLSVSPGERATLSCRASQSVSSNLAWYQQKPGQAPRLLIYGASTRATGIPARFSGSGSGTDFTLTISSLQSEDFALYYCQQYFIWPPHPTFGPGTKVDIKR
B11: H1H27747P-N297Q (antibody, human IgG1, V domains shown)
VH: QVQLVESGGAVVQPGRSLRLSCAASGFTFSYYGMHWVRQAPGKGLEWVAVISYDGSKKYYADSVKGRFTISRDNSKNTLYLQMNSLRAEDTAVYYCAKDLTVDFYYGMDVWGQGTTVTVSS
VL: DIQMTQSPSSVSASVGDRVTITCRASQGISSWLAWYQQKPGKAPKLLIYATSSLQSGAPSRFSGSGSGTDFTLTISSLQPEDFATYFCQQANSFPYTFGQGTKLEIKR
B12: H1H27754P-N297Q (antibody, human IgG1, V domains shown)
VH: EVQLVESGGGLVQPGGSLRLSCAASGFTFRTYAMTWVRQAPGKGLDWVSAITGDGGNTYYADSVKGRFTISRDNSKNTLYLQMNSLRAEDTAIYYCAKDQRFSFALYYFDYWGQGTLVTVSS
VL: B11 VL with K42N, T51A, S52F, A58V, F87Y, S93N, Y96W, L104V
B13: H2aM25695N (antibody, mouse IgG2a, V domains shown)
VH: B6 VH with D58N, T73M, S83N, M85V
VL: B6 VL with N32S, T85A, H90Q, N94S, P96Y
B14: H2aM21229N (antibody, mouse IgG2a, V domains shown)
VH: EVQLVESGGGLVKPGGSLRLSCAASGFTFSRYSMNWVRQAPGKGLEWVSSISSSSSYIYYGDTVKGRFTISRDNAKKSLYLQMNSLRAEDTAVYYCVRDRGQLVLYFDYWGQGTLVTVSS
VL: DIQMTQSPASLSTSIRDRVTITCRASLSISSFLNWFQQRPGKAPKLLIYVASNLQSGVPSRFSDSGSGTDFTLTISSLQPEDFATYYCQQNYSTPPITFGQGTRLEIK

Experiments:
[1] = target: human MSR1 extracellular domain expressed with a N-terminal nonahistidine tag (His9-hMSR1; R&D Systems, Cat #2708-MS) (human) (UniProt P21757); assay: competition ELISA; 100 nM antibody, competitor Ac-LDL, plate-coated His9-hMSR1
[2] = target: human MSR1 extracellular domain expressed with a N-terminal nonahistidine tag (His9-hMSR1; R&D Systems, Cat #2708-MS) (human) (UniProt P21757); assay: competition ELISA; 300 nM antibody, competitor biot-AGE-BSA, plate-coated His9-hMSR1
[3] = target: mouse MSR1 on RAW264.7 cells (mouse) (UniProt P30204); assay: flow cytometry, RAW264.7 cells, 10 ug/mL
[4] = target: full length human MSR1 with a C-terminal Myc tag on HEK293.Myc.hMSR1 cells (human) (UniProt P21757); assay: ECL cell binding, HEK293.Myc.hMSR1 cells
[5] = target: human MSR1 extracellular domain expressed with a N-terminal nonahistidine tag (His9-hMSR1; R&D Systems, Cat #2708-MS) (human) (UniProt P21757); assay: competition ELISA; 500 nM antibody, competitor 10 nM Ox-LDL, plate-coated His9-hMSR1
[6] = target: full length monkey MSR1 on HEK293.mfMSR1 cells (Macaca fascicularis); assay: ECL cell binding, HEK293.mfMSR1 cells
[7] = target: endogenously expressed human MSR1 on PMA-treated THP-1 cells (human) (UniProt P21757); assay: ECL cell binding, PMA-treated THP-1 cells
[8] = target: human MSR1 extracellular domain expressed with a N-terminal nonahistidine tag (His9-hMSR1; R&D Systems, Cat #2708-MS) (human) (UniProt P21757); assay: competition ELISA; 1 µM antibody, competitor 10 nM Ox-LDL, plate-coated His9-hMSR1
[9] = target: human MSR1 extracellular domain expressed with a N-terminal nonahistidine tag (His9-hMSR1; R&D Systems, Cat #2708-MS) (human) (UniProt P21757); assay: competition ELISA; 500 nM antibody, competitor 5 nM Ox-LDL, plate-coated His9-hMSR1

Chain of full length monkey MSR1 on HEK293.mfMSR1 cells (Macaca fascicularis) (chain, as listed by the source): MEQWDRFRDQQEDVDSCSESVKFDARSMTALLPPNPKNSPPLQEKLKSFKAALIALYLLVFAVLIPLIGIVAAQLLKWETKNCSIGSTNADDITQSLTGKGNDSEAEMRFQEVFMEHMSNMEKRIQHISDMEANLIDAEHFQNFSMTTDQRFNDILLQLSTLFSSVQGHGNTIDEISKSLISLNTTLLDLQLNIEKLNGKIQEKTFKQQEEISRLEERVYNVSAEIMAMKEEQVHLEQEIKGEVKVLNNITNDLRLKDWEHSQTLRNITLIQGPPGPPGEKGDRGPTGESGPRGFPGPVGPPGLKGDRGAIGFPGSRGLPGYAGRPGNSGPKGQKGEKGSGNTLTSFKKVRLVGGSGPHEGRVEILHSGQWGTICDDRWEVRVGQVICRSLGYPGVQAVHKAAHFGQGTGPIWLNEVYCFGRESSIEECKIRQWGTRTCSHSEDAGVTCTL
Chain of human MSR1 extracellular domain expressed with a N-terminal nonahistidine tag (His9-hMSR1; R&D Systems, Cat #2708-MS) (human) (P21757 other isoform, or with tags, fused parts or gaps): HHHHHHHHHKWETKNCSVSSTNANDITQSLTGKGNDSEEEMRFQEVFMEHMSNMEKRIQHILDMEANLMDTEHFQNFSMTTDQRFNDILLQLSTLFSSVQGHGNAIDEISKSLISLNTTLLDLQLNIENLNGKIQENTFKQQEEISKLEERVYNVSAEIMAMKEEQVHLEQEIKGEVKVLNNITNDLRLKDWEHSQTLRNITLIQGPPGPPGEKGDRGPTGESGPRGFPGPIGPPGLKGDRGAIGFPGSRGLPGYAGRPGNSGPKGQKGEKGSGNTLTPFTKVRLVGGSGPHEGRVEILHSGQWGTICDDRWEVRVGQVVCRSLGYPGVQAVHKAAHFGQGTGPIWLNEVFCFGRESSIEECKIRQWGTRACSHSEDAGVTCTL
Chain of full length human MSR1 with a C-terminal Myc tag on HEK293.Myc.hMSR1 cells (human) (P21757 whole entry, the tested form may be a part): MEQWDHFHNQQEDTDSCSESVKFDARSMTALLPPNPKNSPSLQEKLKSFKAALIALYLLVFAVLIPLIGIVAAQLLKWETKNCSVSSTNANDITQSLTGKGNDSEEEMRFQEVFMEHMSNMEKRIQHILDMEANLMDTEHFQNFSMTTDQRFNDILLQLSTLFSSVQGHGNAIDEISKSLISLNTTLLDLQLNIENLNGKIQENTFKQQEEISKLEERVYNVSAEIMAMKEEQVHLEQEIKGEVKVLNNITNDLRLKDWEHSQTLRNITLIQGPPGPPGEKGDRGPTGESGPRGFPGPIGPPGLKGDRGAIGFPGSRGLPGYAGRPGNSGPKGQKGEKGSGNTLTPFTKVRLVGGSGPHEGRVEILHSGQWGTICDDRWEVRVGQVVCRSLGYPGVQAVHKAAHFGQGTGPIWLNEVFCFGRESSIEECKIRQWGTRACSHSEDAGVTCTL
Chain of endogenously expressed human MSR1 on PMA-treated THP-1 cells (human) (P21757 whole entry, the tested form may be a part): as above
Chain of mouse MSR1 on RAW264.7 cells (mouse) (P30204 whole entry): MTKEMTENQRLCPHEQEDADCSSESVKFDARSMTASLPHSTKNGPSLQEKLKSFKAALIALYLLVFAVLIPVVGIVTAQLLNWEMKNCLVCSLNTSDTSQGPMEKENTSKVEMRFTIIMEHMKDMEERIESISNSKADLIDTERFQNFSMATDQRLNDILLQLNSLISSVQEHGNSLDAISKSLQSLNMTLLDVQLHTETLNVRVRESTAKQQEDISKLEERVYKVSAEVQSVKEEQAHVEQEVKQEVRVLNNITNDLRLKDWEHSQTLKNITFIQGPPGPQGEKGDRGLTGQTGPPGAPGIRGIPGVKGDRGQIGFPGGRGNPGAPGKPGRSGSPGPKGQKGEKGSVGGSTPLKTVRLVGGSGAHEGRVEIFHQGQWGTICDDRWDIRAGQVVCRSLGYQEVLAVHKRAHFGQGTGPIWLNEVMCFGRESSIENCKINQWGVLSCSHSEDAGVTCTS

Binder | % Blocking [1] [%] | % Blocking [2] [%] | MFI [3] | S/N [3] | ratio of 11 nM antibody binding signal (RLU) to isotype control [4] | % Blocking [5] [%] | ratio of 11 nM antibody binding signal (RLU) to isotype control [6] | ratio of 11 nM antibody binding signal (RLU) to isotype control [7] | % Blocking [8] [%] | % Blocking [9] [%]
B1 | 105 | 96 | 12800 | 5 | 37 | 97 | 23 | 5 |  | 
B2 | 101 | 97 |  |  | 34 | 99 | 25 | 6 |  | 
B3 | 105 | 99 |  |  | 37 | 100 | 26 | 7 |  | 
B4 | -60 | -50 | 3580 | 1 | 64 | 26 | 69 | 45 |  | 
B5 | -62 | -44 |  |  | 61 | 22 | 75 | 42 |  | 
B6 | 75 | -27 | 7050 | 3 | 43 | 49 | 35 | 25 |  | 
B7 | 70 | 21 |  |  | 32 | 98 | 31 | 18 |  | 
B8 | 8 | 15 | 3480 | 1 | 17 |  | 6 | 8 | 36 | 
B9 | -38 | -4 | 4780 | 1 | 40 |  | 28 | 21 | -15 | 
B10 | -47 | -9 | 3270 | 1 | 22 |  | 20 | 9 | -41 | 
B11 | -44 | -2 | 3630 | 1 | 26 |  | 21 | 13 | -31 | 
B12 | -42 | -9 | 5410 | 1 | 55 |  | 53 | 66 | -44 | 
B13 | 65 | 16 |  |  | 35 | 96 | 45 | 8 |  | 
B14 | -11 | 3 |  |  | 78 |  |  | 56 |  | 38
